From publication PMC4122225 (2014)
Values belong to the binder of their own block, whether it stands above or below them.

Experiments:
Experiment in all cases: ELISA
[1] = target: Apolipoprotein E3 (LipoE3) (Homo sapiens, UniProt P02649)
[2] = target: Apolipoprotein E4 (LipoE4) (Homo sapiens, UniProt P02649)
[3] = target: Apolipoprotein E2 (LipoE2) (Homo sapiens, UniProt P02649)
Sequence of Apolipoprotein E2 (LipoE2) (P02649 19-317): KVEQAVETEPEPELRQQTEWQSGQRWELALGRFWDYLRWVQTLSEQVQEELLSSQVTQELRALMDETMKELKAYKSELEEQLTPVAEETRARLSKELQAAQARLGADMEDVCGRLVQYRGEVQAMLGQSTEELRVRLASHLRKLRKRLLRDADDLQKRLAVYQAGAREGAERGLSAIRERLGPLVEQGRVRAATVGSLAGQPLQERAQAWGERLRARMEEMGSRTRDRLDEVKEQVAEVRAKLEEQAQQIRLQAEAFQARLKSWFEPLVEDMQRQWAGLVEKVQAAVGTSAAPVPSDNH

Sequence of Apolipoprotein E4 (LipoE4) (P02649 19-317): as above
Sequence of Apolipoprotein E3 (LipoE3) (P02649 19-317): as above

Kd [1]: 59.6 nM
B1: Haptoglobin (phenotype 1-1) (protein)
chain 1: VDSGNDVTDIADDGCPKPPEIAHGYVEHSVRYQCKNYYKLRTEGDGVYTLNDKKQWINKAVGDKLPECEADDGCPKPPEIAHGYVEHSVRYQCKNYYKLRTEGDGVYTLNNEKQWINKAVGDKLPECEAVCGKPKNPANPVQ
chain 2: ILGGHLDAKGSFPWQAKMVSHHNLTTGATLINEQWLLTTAKNLFLNHSENATAKDIAPTLTLYVGKKQLVEIEKVVLHPNYSQVDIGLIKLKQKVSVNERVMPICLPSKDYAEVGRVGYVSGWGRNANFKFTDHLKYVMLPVADQDQCIRHYEGSTVPEKKTPKSPVGVQPILNEHTFCAGMSKYQEDTCYGDAGSAFAVHDLEEDTWYATGILSFDKSCAVAEYGVYVKVTSIQDWVQKTIAEN
modifications: ApoE3 isoform, lecithin liposome-associated

Kd [2]: 54.9 nM
B2: Haptoglobin (phenotype 1-1) (protein)
chain 1: VDSGNDVTDIADDGCPKPPEIAHGYVEHSVRYQCKNYYKLRTEGDGVYTLNDKKQWINKAVGDKLPECEADDGCPKPPEIAHGYVEHSVRYQCKNYYKLRTEGDGVYTLNNEKQWINKAVGDKLPECEAVCGKPKNPANPVQ
chain 2: ILGGHLDAKGSFPWQAKMVSHHNLTTGATLINEQWLLTTAKNLFLNHSENATAKDIAPTLTLYVGKKQLVEIEKVVLHPNYSQVDIGLIKLKQKVSVNERVMPICLPSKDYAEVGRVGYVSGWGRNANFKFTDHLKYVMLPVADQDQCIRHYEGSTVPEKKTPKSPVGVQPILNEHTFCAGMSKYQEDTCYGDAGSAFAVHDLEEDTWYATGILSFDKSCAVAEYGVYVKVTSIQDWVQKTIAEN
modifications: ApoE4 isoform, lecithin liposome-associated

Kd [3]: 58.2 nM
B3: Haptoglobin (phenotype 1-1) (protein)
chain 1: VDSGNDVTDIADDGCPKPPEIAHGYVEHSVRYQCKNYYKLRTEGDGVYTLNDKKQWINKAVGDKLPECEADDGCPKPPEIAHGYVEHSVRYQCKNYYKLRTEGDGVYTLNNEKQWINKAVGDKLPECEAVCGKPKNPANPVQ
chain 2: ILGGHLDAKGSFPWQAKMVSHHNLTTGATLINEQWLLTTAKNLFLNHSENATAKDIAPTLTLYVGKKQLVEIEKVVLHPNYSQVDIGLIKLKQKVSVNERVMPICLPSKDYAEVGRVGYVSGWGRNANFKFTDHLKYVMLPVADQDQCIRHYEGSTVPEKKTPKSPVGVQPILNEHTFCAGMSKYQEDTCYGDAGSAFAVHDLEEDTWYATGILSFDKSCAVAEYGVYVKVTSIQDWVQKTIAEN
modifications: ApoE2 isoform, lecithin liposome-associated
